Experimental data from CN110343173A (INST MICROBIOLOGY CAS, dated 2019).

Columns and labels:
[1] = target: YFV CNYF01/2016 (YFV-China) 毒株膜蛋白E蛋白胞外区, C端6xHis标签, 大肠杆菌表达复性 (yellow fever virus, strain CNYF01/2016 …, UniProt Q1X881 286-683)
YFV China病毒 (E蛋白, 病毒颗粒上) = YFV China病毒 (E蛋白, 病毒颗粒上) (yellow fever virus, strain CNYF01/2016 …, UniProt Q1X881 286-683); assay: cell-based or functional assay
YFV China病毒 (E蛋白, 病毒颗粒上), sequence (Q1X881 286-683, tags left off): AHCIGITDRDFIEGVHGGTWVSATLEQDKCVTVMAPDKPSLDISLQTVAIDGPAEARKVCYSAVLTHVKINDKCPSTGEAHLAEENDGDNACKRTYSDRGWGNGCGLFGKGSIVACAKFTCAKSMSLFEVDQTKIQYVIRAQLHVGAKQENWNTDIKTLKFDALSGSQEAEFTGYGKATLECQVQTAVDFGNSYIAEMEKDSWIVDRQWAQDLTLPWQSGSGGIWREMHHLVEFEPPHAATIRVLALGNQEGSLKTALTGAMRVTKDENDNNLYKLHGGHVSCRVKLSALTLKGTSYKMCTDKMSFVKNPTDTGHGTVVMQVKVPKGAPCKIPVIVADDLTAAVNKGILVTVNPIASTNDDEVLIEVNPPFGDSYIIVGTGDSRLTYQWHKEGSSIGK

YFV CNYF01/2016 (YFV-China) 毒株膜蛋白E蛋白胞外区, C端6xHis标签, 大肠杆菌表达复性, sequence (Q1X881 286-683, tags left off): as above

B1: 人源单克隆抗体YD73 (antibody, V domains shown)
VH: QVQLVQSGAEVKKPGASVKVSCKASGYTFIAYGISWVRQAPGQGLEWMGWISAHNGNTNYAQKFQGRVTVTTDTTTRTAFMELRNLRSDDTAVYYCARAPWEYNYRSSGYYDSPYWGQGTLVTVSS
VL: EIVLTQSPGTLSLSPGERATLSCRASQSVVSTYLAWYQQKPGQAPRLLIYDTSTRATGIPDRFSGSGSGTDFTLTISRLEPEDFAVYYCQHYDSSPPWTFGQGTKVEIKR
- Kd [1]: 0.588 nM
- 中和试验 IC50 (Vero细胞感染, FACS检测阳性细胞比例) (YFV China病毒 (E蛋白, 病毒颗粒上)): 3.7 ng/mL
